Measured values from patent US9453838B2, “Methods for making microarrays and their uses” (Asociación Centro De Investigación Cooperative En Bioma …, priority 2013, dated 2016).

How the values were obtained:
Details in all cases: RNAse-B 50 μg/mL in PBS
[1] = biological target: T1, GNA (Galanthus nivalis agglutinin) (Galanthus nivalis, UniProt P30617); test: Lectin array, RNAse B binding by fluorescence scanning and MALDI-Tof MS
T1 sequence (P30617 20-128): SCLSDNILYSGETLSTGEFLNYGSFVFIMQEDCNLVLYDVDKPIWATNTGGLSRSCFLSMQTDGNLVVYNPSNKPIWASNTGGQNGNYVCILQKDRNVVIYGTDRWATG
Protocol: (§1) Slides were stored at −20° C.

[2] = test system: WGA (Wheat Germ Agglutinin); test: as above
Protocol: as §1

[3] = biological target: ConA (Canavalia ensiformis, UniProt P02866)
Protocol: 0.4-0.3 mg/mL (glyco)protein solutions (Concanavalin A, ConA; WGA; and Galanthus nivalis agglutinin, GNA, lectins and RNAse B glycoprotein) were prepared in PBS, and 50 drops (˜0.3 nL per drop) were deposited onto the surface with a dot pitch of 750×750 μm. Slides were then incubated overnight at room temperature in 90% humidity, washed with PBS, quenched with ethanolamine and dried by purging Ar. Slides were stored at −20° C.
A lectin array of ConA, GNA and WGA was printed onto slides as described above, and Cy3-labelled or unlabelled RNAse-B (50 μg/mL in PBS) was added to wells. RNAse B binding and lectin modifications were analyzed by fluorescence imaging and MALDI-Tof MS (FIG. 12).

B1: RNAse B: RNAse B glycoprotein, glycoforms presenting mannose oligosaccharides M5-M9 (protein, UniProt P61823 27-150, looked up)
Ribonuclease pancreatic: KETAAAKFERQHMDSSTSAASSSNYCNQMMKSRNLTKDRCKPVNTFVHESLADVQAVCSQKNVACKNGQTNCYQSYSTMSITDCRETGSSKYPNCAYKTTQANKHIIVACEGNPYVPVHFDASV
modifications: glycoform B
- binding to GNA [1]: binding
- interaction with WGA [2]: no interaction
- binding to ConA [3]: binding
